US12365732 (23ANDME, dated 2025)

Experiments:
[1] = biological target: T1, hu-CD96 isoform 2 on CHO cells (human, UniProt P40200 22-585); experiment: FACS, Ab 2 nM
T1 construct: also called CHO-CD96 (isoform 2); CD96-CHOs
T1 sequence: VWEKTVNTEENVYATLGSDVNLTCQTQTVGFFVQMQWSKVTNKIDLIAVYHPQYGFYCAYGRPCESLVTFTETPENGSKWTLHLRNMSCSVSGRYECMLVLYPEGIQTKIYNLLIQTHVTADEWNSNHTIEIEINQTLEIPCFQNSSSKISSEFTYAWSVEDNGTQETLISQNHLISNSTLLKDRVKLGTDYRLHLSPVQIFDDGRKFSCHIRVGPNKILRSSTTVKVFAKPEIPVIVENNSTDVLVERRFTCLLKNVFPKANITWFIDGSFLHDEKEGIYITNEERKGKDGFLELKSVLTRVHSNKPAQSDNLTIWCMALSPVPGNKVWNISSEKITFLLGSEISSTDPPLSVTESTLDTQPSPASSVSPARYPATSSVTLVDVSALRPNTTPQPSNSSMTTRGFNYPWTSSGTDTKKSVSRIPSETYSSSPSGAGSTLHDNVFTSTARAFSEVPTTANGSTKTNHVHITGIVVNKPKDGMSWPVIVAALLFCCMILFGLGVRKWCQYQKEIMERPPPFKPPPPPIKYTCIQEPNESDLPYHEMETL
Experimental: (§1) Isoform 1 of hu-CD96 (Origene, catalog #RC213845) was transiently expressed in HEK293T cells following standard lipofectamine or Fugene transfection protocol. […] Cells were washed, and binding was detected by incubation with anti-mouse IgG-FITC (Biolegend, catalog #406001) for 20 minutes at 4° C. Cell binding was analyzed by flow cytometry with a CytoFLEX (Beckman Coulter). Binding curves were calculated as a percentage of cells positive for bound antibody.
Isoform 2 of hu-CD96 (DNA construct: Origene, catalog #RC221005) was expressed on a single-cell-clone-derived CHO stable cell line. Binding of the anti-CD96 antibodies to the CHO cells were determined as described above with isoform 1 of hu-CD96.

[2] = biological target: T2, hu-CD96 isoform 1 on HEK293T cells (human, UniProt P40200 22-585); experiment: FACS, % positive curve
T2 construct: Origene RC213845, transient expression; also called HEK293T-CD96 (iso1)
T2 sequence: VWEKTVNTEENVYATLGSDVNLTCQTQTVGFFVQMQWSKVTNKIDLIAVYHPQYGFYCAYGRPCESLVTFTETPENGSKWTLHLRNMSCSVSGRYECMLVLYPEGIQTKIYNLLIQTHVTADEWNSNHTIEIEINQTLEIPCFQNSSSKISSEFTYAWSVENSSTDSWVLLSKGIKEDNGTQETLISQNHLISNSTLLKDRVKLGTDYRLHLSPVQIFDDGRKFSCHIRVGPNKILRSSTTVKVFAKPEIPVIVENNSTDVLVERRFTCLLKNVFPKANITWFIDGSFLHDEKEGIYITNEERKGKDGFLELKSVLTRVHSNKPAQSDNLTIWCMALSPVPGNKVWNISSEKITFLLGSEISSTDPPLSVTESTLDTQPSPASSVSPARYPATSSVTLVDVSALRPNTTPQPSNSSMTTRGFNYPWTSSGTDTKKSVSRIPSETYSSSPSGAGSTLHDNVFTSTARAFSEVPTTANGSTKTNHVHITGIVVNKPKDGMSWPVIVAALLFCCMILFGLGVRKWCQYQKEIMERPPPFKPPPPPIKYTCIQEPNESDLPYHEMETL
Experimental: as §1

cy-CD96 Fc = biological target: T3, cy-CD96 Fc (cynomolgus monkey, biotinylated in Table 16); experiment: SPR 25C, CD96-Fc on Protein A, Fab analyte
T3 construct: also called biotinylated cy-CD96-Fc
T3 sequence (chain, as listed by the source): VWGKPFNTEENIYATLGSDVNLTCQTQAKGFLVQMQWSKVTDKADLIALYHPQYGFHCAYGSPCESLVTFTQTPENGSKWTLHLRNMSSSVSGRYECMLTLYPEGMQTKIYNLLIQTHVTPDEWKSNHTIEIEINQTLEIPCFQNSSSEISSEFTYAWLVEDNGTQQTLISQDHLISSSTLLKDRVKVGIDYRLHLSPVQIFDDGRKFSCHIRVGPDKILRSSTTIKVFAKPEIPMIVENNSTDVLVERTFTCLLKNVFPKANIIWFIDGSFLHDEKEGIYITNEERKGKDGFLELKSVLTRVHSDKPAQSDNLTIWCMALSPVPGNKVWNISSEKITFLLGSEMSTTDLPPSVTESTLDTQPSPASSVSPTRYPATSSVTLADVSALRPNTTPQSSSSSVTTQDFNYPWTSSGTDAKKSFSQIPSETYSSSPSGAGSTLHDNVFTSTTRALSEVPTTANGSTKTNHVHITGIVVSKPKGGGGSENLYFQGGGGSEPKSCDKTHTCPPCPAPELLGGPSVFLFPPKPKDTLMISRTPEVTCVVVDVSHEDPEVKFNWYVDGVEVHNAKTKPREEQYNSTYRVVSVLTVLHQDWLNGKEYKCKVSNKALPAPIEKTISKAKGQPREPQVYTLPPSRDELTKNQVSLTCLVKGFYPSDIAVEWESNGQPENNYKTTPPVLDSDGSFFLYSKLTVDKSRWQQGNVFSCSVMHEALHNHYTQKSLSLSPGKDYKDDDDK
Experimental: Briefly, hu-CD96 Fc and cy-CD96 Fc were diluted at 10 µg/mL in HBS-P buffer (0.01 M HEPES pH 7.4, 0.15 M NaCl, 0.005% Surfactant P20) and applied to the Protein A chip at 30 µL/min flow rate for 60 s in flow cell 2 (FC2). Then flow 3-fold serial dilutions of mAb1.v7 Fab variants in HBS-P buffer (0.01 M HEPES pH 7.4, 0.15 M NaCl, 0.005% surfactant P20) from (0.4 nM) to high (1000 nM) were injected (flow rate: 30 µL/min) at 25° C. to both flow cell 1 (FC1) and flow cell 2 (FC2). The sensorgram was recorded and subject to reference and buffer subtraction before evaluating by BIA- CORE® 8K Evaluation Software (version 1.1.1.7442). Association rates ($kon$) and dissociation rates ($koff$) were calculated using a simple one-to-one Langmuir binding model. The equilibrium dissociation constant (K_D) was calculated as the ratio of $koff/kon$, and the values determined for the mAb1.v7 and the 5 Fab variants are summarized in Table 10 (below).

[3] = biological target: T1, hu-CD96 isoform 2 on CHO cells; experiment: FACS, CD155-Fc-FLAG 10 nM, Ab 20 nM
Experimental: CHO cells stably expressing isoform 2 of hu-CD96 (Origene, catalog #RC221005) were incubated with anti-CD96 antibodies for 20 minutes at 4° C. The cells were washed, and then incubated with 10 nM human CD155-Fc-FLAG for 30 minutes at 4° C. Cells were washed, and then human CD155-Fc-FLAG binding was detected by incubation with anti-FLAG-APC (Columbia Biosciences, catalog #D3-1718-1MG) for 20 minutes at 4° C. Cell binding was analyzed by flow cytometry with a CytoFLEX (Beckman Coulter). CD155 binding is represented as median fluorescence intensity (MedFI).
As shown in Table 20 (below), the anti-CD96 antibodies, mAb1.v7.NGS8, mAb1.v7.NGS9, mAb1.v7.NGS10, mAb1.v7.NGS11, and h10G1 inhibited soluble hu-CD155 binding to CD96-expressing CHO cells dose-dependently and potently. The antibody NK92.39 (Fuchs et al., 2004; Biolegend catalog #338405) inhibited receptor binding similarly.

B1: 10G1 (clone 10G1.3G8), purified hybridoma antibody (antibody, V domains shown)
VH: QIQLVQSGPELKKPGETVKISCKASGYPFTTYGMSWVKQAPGKGLKWMGWINTDSGVPTYADDFKGRFAFSLETSANTAYLQINSLKNEDAATYFCARNIYYGWGNFDYWGQGTILTVSS
VL: DILMTQSPTTLSVTPGETVSLSCRASQDIYRNLHWYQQKSQGTPRLLIKHASDSISGIPSRFTGSGSGTDFTLSINSVKPEDEGIYYCLQGYSMPYTFGGGTKLEIK
notes: murine hybridoma IgG
Question: What does the source list for B1?
Answer: % positive [1]: 34.9%; EC50 [2]: 0.24 nM

B2: mAb1.v7.2 Fab (Fab, V domains shown)
VH: EVQLVQSGAEVKKPGASVKVSCKASGFTFTNNWRHWVRQAPGQGLEWIGMIHFNSGITNINEKFKNRVTMTTDTSTSTAYMELRSLRSEDTAVYYCRSDGVYEGYFDYWGQGTLVTVSS
VL: DIQLTQSPSSLSASVGDRVTITCKASQNVGTAIVWYQQKPGKAPKVLIYSASTRYTGVPSRFSGSGSGTDFTLTISSLQPEDFATYYCQQYSSSPLTFGQGTKVEIK
notes: also called M34R/P52aF/T97V
Question: B2 was tested. Which Kd (cy-CD96 Fc) did it give?
Answer: 9.24 nM

Question: What about the koff (cy-CD96 Fc) of the same binder?
Answer: 0.00024 s⁻¹

Question: What about the kon (cy-CD96 Fc) of the same binder?
Answer: 26000 M⁻¹ s⁻¹

B3: mAb1.v7.9 Fab (Fab, V domains shown)
VH: EVQLVQSGAEVKKPGASVKVSCKASGFTFTNNWRHWVRQAPGQGLEWIGMIHMNSGITNINEKFKNRVTMTTDTSTSTAYMELRSLRSEDTAVYYCRSDGVYEGYFDYWGQGTLVTVSS
VL: DIQLTQSPSSLSASVGDRVTITCKASQNVGTAIVWYQQKPGKAPKVLIYSASTRYTGVPSRFSGSGSGTDFTLTISSLQPEDFATYYCQQYSSSPLTFGQGTKVEIK
notes: also called M34R/P52aM/T97V
Question: Which results are given for B3?
Answer: Kd (cy-CD96 Fc): 22 nM; koff (cy-CD96 Fc): 0.000802 s⁻¹; kon (cy-CD96 Fc): 36400 M⁻¹ s⁻¹

B4: mAb1.v7.16 Fab (Fab, V domains shown)
VH: EVQLVQSGAEVKKPGASVKVSCKASGFTFTNNWRHWVRQAPGQGLEWIGMIHPNSGITNINEKFKNRVTMTTDTSTSTAYMELRSLRSEDTAVYYCRSDGVYEGYFDYWGQGTLVTVSS
VL: DIQLTQSPSSLSASVGDRVTITCKASQNVGTAIVWYQQKPGKAPKVLIYSASTRYTGVPSRFSGSGSGTDFTLTISSLQPEDFATYYCQQYSSSPLTFGQGTKVEIK
notes: also called M34R/T97V
Question: With B4 as the binder, how does the Kd (cy-CD96 Fc) read?
Answer: 94 nM

Question: And the koff (cy-CD96 Fc)?
Answer: 0.000972 s⁻¹

Question: And the kon (cy-CD96 Fc)?
Answer: 10400 M⁻¹ s⁻¹

B5: mAb1.v7.48 Fab (Fab, V domains shown)
VH: EVQLVQSGAEVKKPGASVKVSCKASGFTFTNRWMHWVRQAPGQGLEWIGMIHHNSGITNINEKFKNRVTMTTDTSTSTAYMELRSLRSEDTAVYYCRSDGVYEGYFDYWGQGTLVTVSS
VL: DIQLTQSPSSLSASVGDRVTITCKASQNVGTAIVWYQQKPGKAPKVLIYSASTRYTGVPSRFSGSGSGTDFTLTISSLQPEDFATYYCQQYSSSPLTFGQGTKVEIK
notes: also called N32R/P52aH/T97V
Question: For B5, which Kd (cy-CD96 Fc) is on record?
Answer: 8.9 nM

Question: What about the koff (cy-CD96 Fc) of the same binder?
Answer: 0.000328 s⁻¹

Question: What about the kon (cy-CD96 Fc) of the same binder?
Answer: 36600 M⁻¹ s⁻¹

B6: mAb1.v7.70 Fab (Fab, V domains shown)
VH: EVQLVQSGAEVKKPGASVKVSCKASGFTFTNRWMHWVRQAPGQGLEWIGMIHANSGITNINEKFKNRVTMTTDTSTSTAYMELRSLRSEDTAVYYCRSDGVYEGYFDYWGQGTLVTVSS
VL: DIQLTQSPSSLSASVGDRVTITCKASQNVGTAIVWYQQKPGKAPKVLIYSASTRYTGVPSRFSGSGSGTDFTLTISSLQPEDFATYYCQQYSSSPLTFGQGTKVEIK
notes: also called N32R/P52aA/T97V
Question: With B6 as the binder, how does the Kd (cy-CD96 Fc) read?
Answer: 5 nM

Question: And the koff (cy-CD96 Fc)?
Answer: 0.000189 s⁻¹

Question: What about the kon (cy-CD96 Fc) of the same binder?
Answer: 37200 M⁻¹ s⁻¹

B7: 9H4, purified hybridoma antibody (antibody, V domains shown)
VH: EVQLLETGGGLVKSGGSLKLSCAASGFTFSDYYMYWVRQTPEKRLEWVAAISDDGTYTYYPDSVKGRFTISRDNANNYLYLQMSSLKSEDTAIYYCAKAGSYDYFDVWGAGTTVTVSS
VL: DIVLTQSPASLAVSLGQRAIISCKASQSVTFADTGLMHWYQQKPGQQPKLLIYRASNLEVGVPTRFSGSGSGTDFTLNIHPVEEEDVATYYCQQSREYPWTFGGGTKLEIK
notes: murine hybridoma IgG
Question: Which results are given for B7?
Answer: % positive [1]: 44.2%; EC50 [2]: 2.1 nM

B8: 7E5, purified hybridoma antibody (antibody, V domains shown)
VH: QVQLKESGPGLVAPSQSLSIICTVSGFSLTNYGIHWIRQPPGKGLEWLGIIWAGGSTNYNSALMSRLTISKDNSKSQVFLKMNSLQTNDTAIYYCARVSMMGFAYWGQGTLVTVSA
VL: QAVVTQESALTTSPGETVTLTCRSSTGAVTTSNYANWVQEKPDHLFTGLIGGTNNRAPGVPARFSGSLIGDKAALTITGAQTEDEAIYFCSLWYGSHWVFGGGTKLTVL
notes: murine hybridoma IgG
Question: How did the “% positive” value [1] turn out when B8 was run?
Answer: 53.3%

Question: What about the EC50 [2] of the same binder?
Answer: 0.71 nM

B9: mAb1.v7.NGS9 IgG (antibody, V domains shown)
VH: EVQLVQSGAEVKKPGASVKVSCKASGFTFTNNFMHWVRQAPGQGLEWIGMIHANSGITNINEKFKNRVTMTTDTSTSTAYMELRSLRSEDTAVYYCRSDGVYEGYFDYWGQGTLVTVSS
VL: DIQLTQSPSSLSASVGDRVTITCKASQNVGTAIVWYQQKPGKAPKVLIYSASTRYTGVPSRFSGSGSGTDFTLTISSLQPEDFATYYCQQYSSSPLTFGQGTKVEIKG
notes: human IgG1 N297G
Question: With B9 as the binder, how does the “CD155-Fc binding (MedFI)” value [3] read?
Answer: 4260 MedFI

B10: mAb1.v7.NGS10 IgG (antibody, V domains shown)
VH: EVQLVQSGAEVKKPGASVKVSCKASGFTFTNNFMHWVRQAPGQGLEWIGFIHANSGITNINEKFKNRVTMTTDTSTSTAYMELRSLRSEDTAVYYCRSDGIYEGYFDYWGQGTLVTVSS
VL: DIQLTQSPSSLSASVGDRVTITCKASQNVGTAIVWYQQKPGKAPKVLIYSASTRYTGVPSRFSGSGSGTDFTLTISSLQPEDFATYYCQQYSSSPLTFGQGTKVEIKG
notes: human IgG1 N297G
Question: Which “CD155-Fc binding (MedFI)” value [3] does the source give for B10 here?
Answer: 4940 MedFI

B11: mAb1.v7.NGS11 IgG (antibody, V domains shown)
VH: EVQLVQSGAEVKKPGASVKVSCKASGFTFTNNFMHWVRQAPGQGLEWIGFIHANSGITNINEKFKNRVTMTTDTSTSTAYMELRSLRSEDTAVYYCRSDGVYEGYFDYWGQGTLVTVSS
VL: DIQLTQSPSSLSASVGDRVTITCKASQNVGTAIVWYQQKPGKAPKVLIYSASTRYTGVPSRFSGSGSGTDFTLTISSLQPEDFATYYCQQYSSSPLTFGQGTKVEIKG
notes: human IgG1 N297G
Question: How did the “CD155-Fc binding (MedFI)” value [3] turn out when B11 was run?
Answer: 4460 MedFI

B12: h10G1 IgG (humanized 10G1) (antibody, V domains shown)
VH: EIQLVQSGSELKKPGASVKVSCKASGYPFTTYGMSWVRQAPGQGLEWMGWINTDSGVPTYADDFKGRFVFSLDTSVSTAYLQISSLKAEDTAVYFCARNIYYGWGNFDYWGQGTLVTVSS
VL: EIVMTQSPDFQSVTPKEKVTITCRASQDIYRNLHWYQQKPDQTPKLLIKHASDSISGIPSRFSGSGSGTDFTLTINSLEAEDAAAYYCLQGYSMPYTFGGGTKVEIKG
notes: human IgG1 N297G
Question: With B12 as the binder, how does the “CD155-Fc binding (MedFI)” value [3] read?
Answer: 4860 MedFI
